The values below come from paper PMC7610479.

For orientation: Kd means the equilibrium constant for the complex coming apart. For orientation: koff means the rate constant with which the complex falls apart. By kon is commonly meant the rate constant with which the complex forms.

The target in test [1] is recombinant SMN (Survival Motor Neuron protein) (UniProt Q16637). Put plainly: SPR.
Test [2] addresses Survival Motor Neuron (SMN) protein, recombinant (UniProt Q16637). Briefly: SPR. (In general: In SPR one partner is held on a chip, and binding of the other changes the refractive index at the surface.)

Consider “purified SMN-free 80S ribosomes from NSC-34 cells depleted of SMN (complex)”, for which, in test [1], the Kd amounted to 9.8 pM, the koff was 9.4e-05 s⁻¹ and the kon is 9.7e+06 M⁻¹ s⁻¹.
“purified SMN-free 80S ribosomes from NSC-34 cells depleted from SMN (from UniProt P61255 1-145) (complex)”: in test [2], the Kd came to 10 pM.
